In patent US20240352097A1 (NATIONAL SUN YAT SEN UNIVERSITY, published 2024):

T1: JEV envelope (E) protein (Japanese encephalitis virus, UniProt P0DOH8 295-699)
T1 chain: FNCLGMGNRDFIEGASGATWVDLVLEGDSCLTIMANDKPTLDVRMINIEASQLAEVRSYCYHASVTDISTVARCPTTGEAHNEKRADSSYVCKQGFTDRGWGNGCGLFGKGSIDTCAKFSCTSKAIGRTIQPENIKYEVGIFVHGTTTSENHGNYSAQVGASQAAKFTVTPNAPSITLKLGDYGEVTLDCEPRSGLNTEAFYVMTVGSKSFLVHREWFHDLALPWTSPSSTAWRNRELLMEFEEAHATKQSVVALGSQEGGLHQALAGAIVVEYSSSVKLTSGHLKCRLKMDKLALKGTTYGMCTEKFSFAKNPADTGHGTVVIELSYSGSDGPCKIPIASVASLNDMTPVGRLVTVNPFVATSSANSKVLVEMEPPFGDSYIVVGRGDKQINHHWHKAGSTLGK

T2: DENV-3 envelope (E) protein (Dengue virus serotype 3, UniProt Q5UB51 281-678)
T2 chain: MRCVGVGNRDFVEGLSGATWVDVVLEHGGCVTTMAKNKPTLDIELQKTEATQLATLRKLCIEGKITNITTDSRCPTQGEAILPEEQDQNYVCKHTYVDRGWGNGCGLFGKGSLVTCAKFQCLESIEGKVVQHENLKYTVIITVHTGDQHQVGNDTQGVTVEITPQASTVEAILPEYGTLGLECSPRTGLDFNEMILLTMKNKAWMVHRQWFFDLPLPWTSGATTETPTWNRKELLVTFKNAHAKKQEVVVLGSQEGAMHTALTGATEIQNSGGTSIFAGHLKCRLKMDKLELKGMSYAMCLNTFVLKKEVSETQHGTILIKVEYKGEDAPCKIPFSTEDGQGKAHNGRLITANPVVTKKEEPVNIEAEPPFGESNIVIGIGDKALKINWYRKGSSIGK

T3: DENV-1 envelope (E) protein (Dengue virus serotype 1, UniProt P27909 281-680)
T3 chain: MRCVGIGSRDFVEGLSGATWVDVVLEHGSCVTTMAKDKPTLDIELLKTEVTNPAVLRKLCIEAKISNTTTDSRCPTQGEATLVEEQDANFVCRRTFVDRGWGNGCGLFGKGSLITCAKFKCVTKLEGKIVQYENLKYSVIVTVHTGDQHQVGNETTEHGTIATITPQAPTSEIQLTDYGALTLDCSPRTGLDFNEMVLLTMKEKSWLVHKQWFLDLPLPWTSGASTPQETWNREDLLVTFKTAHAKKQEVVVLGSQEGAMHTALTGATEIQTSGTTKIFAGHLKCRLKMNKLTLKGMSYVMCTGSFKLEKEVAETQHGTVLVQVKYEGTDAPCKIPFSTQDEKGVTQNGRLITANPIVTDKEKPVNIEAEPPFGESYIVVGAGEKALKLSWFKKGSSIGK

B1: K8b-IgG1 (antibody, V domains shown)
VH: QVQLVQPGAEVVKPGASVKLSCKTSGYTFTSNWMHWVKQAPGQGLEWIGEIDPSDSYTNYNQNFQGKAKLTVDKSTSTAYMEVSSLRSDDTAVYYCARGSNPYYYAMDYWGQGTSVTVSS
VL: EIVMMQSPLTLSLSPGERATLSCRASQSVSSNYLAWYQQRPGQAPRLLIYGVSSRATGVPVRFSGSGSGTDFTLTISRLEPEDFAVYYCQHYGGSLSWTFGQGTKVEIK
B2: K8b-F(ab) (Fab, V domains shown)
VH: B1 VH
VL: EIVMMQSPLTLSLSPGERATLSCRASQSVSSNYLAWYQQRPGQAPRLLIYGVSSRATGVPVRFSGSGSGTDFTLTISRLEPEDFAVYYCQHYGGSLSWTFGQGTKVEIKR
B3: K5-IgG1 (antibody, V domains shown)
VH: EVQLLESGAEVKKPGSSVKVSCQASGDTFSNSDINWVRQAPGQGLEWMGGIIPAYDTTNYARTFQGRVAITADKSTSTVYMELSRLRSEDTAVYYCATDQRDYFGLGNHFNAQHFWGQGTLVTVSS
VL: AIRMTQTPLSLSASVGDRVTITCRASQSISNYLNWYQQRPGKAPNLLIYTASNLHSGVPSRFSGSGSGTDFTLTISSLQPEDFATYYCQQSYSGGYTFGQGPSWEIK

Tests used:
Assay in all cases: cell-based or functional assay
[1] = molecular target: DENV-2 envelope (E) protein (Dengue virus serotype 2, UniProt P29990 281-679)
[2] = molecular target: T1, JEV envelope (E) protein
[3] = molecular target: T2, DENV-3 envelope (E) protein
[4] = molecular target: T3, DENV-1 envelope (E) protein
[5] = molecular target: DENV-4 envelope (E) protein (Dengue virus serotype 4, UniProt Q58HT7 280-679)

Row | Binder | neutralization (FRµNT50) [1] | neutralization (FRµNT50) [2] | neutralization (FRµNT50) [3] | neutralization (FRµNT50) [4] | neutralization (FRµNT50) [5]
1 | B1 | 0.207 µg/mL |  |  |  | 
2 | B2 | 37 nM |  |  |  | 
3 | B3 | 0.215 µg/mL | 0.682 µg/mL | 1.21 µg/mL | 0.771 µg/mL | 1.51 µg/mL
